B1: Keratin, type I cuticular Ha8 (Homo sapiens), O76015 (parent)
chain: MTSSYSSSSCPLGCTMAPGARNVSVSPIDIGCQPGAEANIAPMCLLANVAHANRVRVGSTPLGRPSLCLPPTCHTACPLPGTCHIPGNIGICGAYGENTLNGHEKETMQFLNDRLANYLEKVRQLEQENAELEATLLERSKCHESTVCPDYQSYFHTIEELQQKILCSKAENARLIVQIDNAKLAADDFRIKLESERSLRQLVEADKCGTQKLLDDATLAKADLEAQQESLKEEQLSLKSNHEQEVKILRSQLGEKLRIELDIEPTIDLNRVLGEMRAQYEAMLETNRQDVEQWFQAQSEGISLQDMSCSEELQCCQSEILELRCTVNALEVERQAQHTLKDCLQNSLCEAEDRFGTELAQMQSLISNVEEQLSEIRADLERQNQEYQVLLDVKTRLENEIATYRNLLESEDCKLPCNPCSTSPSCVTAPCAPRPSCGPCTTCGPTCGASTTGSRF

Variants of: B1
Settings: with k22e_human KRT2, P35908
k22e_human KRT2, P35908, sequence (P35908 whole entry): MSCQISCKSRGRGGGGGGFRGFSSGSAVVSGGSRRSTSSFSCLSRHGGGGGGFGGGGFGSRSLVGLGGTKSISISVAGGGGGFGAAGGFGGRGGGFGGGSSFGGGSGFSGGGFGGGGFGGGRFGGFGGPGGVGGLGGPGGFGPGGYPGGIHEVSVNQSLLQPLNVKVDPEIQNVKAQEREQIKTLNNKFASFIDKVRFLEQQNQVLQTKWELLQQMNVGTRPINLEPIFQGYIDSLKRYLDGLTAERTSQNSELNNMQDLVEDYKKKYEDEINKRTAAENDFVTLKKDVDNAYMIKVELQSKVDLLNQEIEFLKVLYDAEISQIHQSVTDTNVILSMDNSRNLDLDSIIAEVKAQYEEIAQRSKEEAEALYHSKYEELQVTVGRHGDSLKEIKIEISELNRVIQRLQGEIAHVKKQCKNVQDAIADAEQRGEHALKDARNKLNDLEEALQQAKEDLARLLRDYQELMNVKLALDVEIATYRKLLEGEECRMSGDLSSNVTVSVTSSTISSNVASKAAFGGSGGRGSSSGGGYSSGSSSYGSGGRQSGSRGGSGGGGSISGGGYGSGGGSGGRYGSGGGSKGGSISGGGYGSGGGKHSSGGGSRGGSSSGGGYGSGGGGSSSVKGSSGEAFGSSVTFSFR
N270K was tested, and the “effect of a mutation on the interaction” value was “with no effect”.

Variants of: B1
Settings: with txnd5_human TXNDC5, Q8NBS9
txnd5_human TXNDC5, Q8NBS9, sequence (Q8NBS9 whole entry): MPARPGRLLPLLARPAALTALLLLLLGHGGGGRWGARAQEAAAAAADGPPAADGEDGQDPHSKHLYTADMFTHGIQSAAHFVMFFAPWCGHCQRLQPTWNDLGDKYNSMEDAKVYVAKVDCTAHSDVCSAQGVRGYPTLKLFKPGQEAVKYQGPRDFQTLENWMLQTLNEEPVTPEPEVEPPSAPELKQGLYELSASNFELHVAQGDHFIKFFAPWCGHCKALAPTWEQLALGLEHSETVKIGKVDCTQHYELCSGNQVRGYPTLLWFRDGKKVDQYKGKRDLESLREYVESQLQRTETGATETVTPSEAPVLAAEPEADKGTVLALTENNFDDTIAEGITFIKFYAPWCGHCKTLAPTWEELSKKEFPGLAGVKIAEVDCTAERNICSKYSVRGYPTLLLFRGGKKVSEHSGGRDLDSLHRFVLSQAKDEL
N270K was tested, and the “effect of a mutation on the interaction” value was “with no effect”.

Variants of: B1
Settings: with prs8_human PSMC5, P62195
prs8_human PSMC5, P62195, sequence (P62195 whole entry): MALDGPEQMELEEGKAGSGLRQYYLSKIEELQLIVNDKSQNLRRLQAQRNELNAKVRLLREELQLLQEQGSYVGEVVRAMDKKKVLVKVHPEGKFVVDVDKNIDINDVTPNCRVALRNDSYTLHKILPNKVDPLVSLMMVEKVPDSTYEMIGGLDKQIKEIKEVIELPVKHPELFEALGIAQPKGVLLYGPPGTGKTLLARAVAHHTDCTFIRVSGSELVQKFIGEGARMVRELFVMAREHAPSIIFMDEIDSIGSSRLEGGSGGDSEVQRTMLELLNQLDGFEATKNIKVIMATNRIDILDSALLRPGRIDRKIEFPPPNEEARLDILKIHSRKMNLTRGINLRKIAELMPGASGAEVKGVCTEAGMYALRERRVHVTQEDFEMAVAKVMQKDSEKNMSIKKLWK
N270K was tested, and the “effect of a mutation on the interaction” value was “with no effect”.

Variants of: B1
Settings: with p85b_human PIK3R2, O00459
p85b_human PIK3R2, O00459, sequence (O00459 whole entry): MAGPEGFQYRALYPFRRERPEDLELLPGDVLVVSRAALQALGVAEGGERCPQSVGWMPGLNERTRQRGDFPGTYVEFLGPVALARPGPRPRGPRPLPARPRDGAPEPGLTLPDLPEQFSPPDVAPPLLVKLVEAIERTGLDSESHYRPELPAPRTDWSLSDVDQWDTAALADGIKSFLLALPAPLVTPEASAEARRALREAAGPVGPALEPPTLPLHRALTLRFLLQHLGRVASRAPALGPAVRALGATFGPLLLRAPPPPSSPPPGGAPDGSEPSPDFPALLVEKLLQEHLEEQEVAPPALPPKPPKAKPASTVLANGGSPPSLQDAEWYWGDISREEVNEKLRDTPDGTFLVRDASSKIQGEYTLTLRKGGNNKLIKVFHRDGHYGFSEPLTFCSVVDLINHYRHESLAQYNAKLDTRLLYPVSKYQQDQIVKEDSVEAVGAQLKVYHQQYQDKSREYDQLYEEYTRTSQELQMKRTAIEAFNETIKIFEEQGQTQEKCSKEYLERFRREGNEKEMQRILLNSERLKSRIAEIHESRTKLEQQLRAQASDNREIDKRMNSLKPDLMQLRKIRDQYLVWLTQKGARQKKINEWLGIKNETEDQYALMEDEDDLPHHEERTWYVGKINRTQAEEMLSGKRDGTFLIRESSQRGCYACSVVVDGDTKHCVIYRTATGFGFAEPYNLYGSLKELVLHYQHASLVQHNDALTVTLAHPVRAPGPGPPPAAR
For N270K, the “effect of a mutation on the interaction” value was “with no effect”.

Variants of: B1
Settings: with KRT6A
N270K was tested, and the “effect of a mutation on the interaction” value was “with no effect”.

Variants of: B1
Settings: with k2c4_human KRT4, P19013
k2c4_human KRT4, P19013, sequence (P19013 whole entry): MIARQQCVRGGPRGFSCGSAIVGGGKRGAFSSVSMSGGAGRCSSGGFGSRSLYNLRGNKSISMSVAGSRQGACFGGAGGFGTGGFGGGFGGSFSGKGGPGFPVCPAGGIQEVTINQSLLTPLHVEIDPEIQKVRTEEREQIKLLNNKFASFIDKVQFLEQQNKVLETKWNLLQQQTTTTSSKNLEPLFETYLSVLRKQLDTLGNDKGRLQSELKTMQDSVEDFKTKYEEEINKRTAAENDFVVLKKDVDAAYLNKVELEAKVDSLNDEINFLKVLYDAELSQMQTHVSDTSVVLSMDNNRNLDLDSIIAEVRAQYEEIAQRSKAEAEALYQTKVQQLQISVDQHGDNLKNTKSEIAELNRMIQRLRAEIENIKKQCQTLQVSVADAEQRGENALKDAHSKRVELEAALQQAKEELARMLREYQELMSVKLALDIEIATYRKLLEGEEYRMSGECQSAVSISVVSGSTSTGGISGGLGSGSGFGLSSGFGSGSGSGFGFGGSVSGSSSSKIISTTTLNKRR
N270K was tested, and the “effect of a mutation on the interaction” value was “with no effect”.

Variants of: B1
Settings: with txlnb_human TXLNB
N270K was tested, and the “effect of a mutation on the interaction” value was “with no effect”.

Variants of: B1
Settings: with KRT79, Q5XKE5
KRT79, Q5XKE5, sequence (Q5XKE5 whole entry): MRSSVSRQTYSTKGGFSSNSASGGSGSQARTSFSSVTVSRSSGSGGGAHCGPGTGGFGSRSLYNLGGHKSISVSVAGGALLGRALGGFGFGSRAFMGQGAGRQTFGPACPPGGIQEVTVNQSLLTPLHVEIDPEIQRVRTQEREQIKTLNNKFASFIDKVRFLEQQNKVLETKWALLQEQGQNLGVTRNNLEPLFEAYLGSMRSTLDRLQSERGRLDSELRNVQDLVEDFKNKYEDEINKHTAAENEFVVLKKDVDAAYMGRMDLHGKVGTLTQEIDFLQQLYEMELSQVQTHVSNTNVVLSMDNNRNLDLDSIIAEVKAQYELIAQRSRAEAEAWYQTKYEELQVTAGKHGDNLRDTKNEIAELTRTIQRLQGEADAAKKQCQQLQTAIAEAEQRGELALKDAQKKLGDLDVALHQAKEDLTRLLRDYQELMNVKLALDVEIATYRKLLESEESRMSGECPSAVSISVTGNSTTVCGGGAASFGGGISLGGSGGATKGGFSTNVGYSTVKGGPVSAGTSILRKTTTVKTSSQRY
In the case of N270K, the “effect of a mutation on the interaction” value is reported as “with no effect”.

Variants of: B1
Settings: with txlna_human TXLNA
In the case of N270K, the “effect of a mutation on the interaction” value is reported as “with no effect”.

From IntAct's records for PubMed 29892012
